Where a chain is given by its changes, count along the chain named. Numbers in names are those of the source.
Tests used:
[1] = Liposome permeabilization by WT and mutant BAK proteins (autoactivation, or direct activation by BID BH3); format: biochemical; conditions: absence of BID BH3
Experimental: Human BAK-∆TM-His6 (BAK)[26] spontaneously permeabilizes liposomes above a certain dose (>100 nM, Fig. 1a). In these dye-release assays[43]–[46], BAK is recruited via His-tag to liposomes containing 2.5 µM of the lipid 1,2-dioleoyl-sn-glycero-3-[(N-(5-amino-1-carboxypentyl)iminodiacetic acid)succinyl] (nickel salt), DGS-NTA(Ni).
To probe autoactivation with full-length BAK, we mutated hydrophobic residues at positions (0)−(6) of the BH3 to alanine or arginine, and D83, which forms the conserved salt bridge (s) with R127, to alanine (Fig. 2a). The BH3 residues participate in autoactivation from the ligand side [hydrophobic positions (0)–(5) and D83(s)] and also from the receptor groove side [hydrophobic positions (3)–(5)] (Fig. 2a). Thus, substitutions at positions (3)–(5) should affect receptor and ligand activities and are predicted to impact BAK activation more severely than mutations of positions (0)–(2), which affect only ligand activity. […] In contrast, almost all (2)–(5) and (s) missense mutants were considerably impaired in autoactivation (Fig. 2b and Supplementary Fig. 3a). […] Despite impairment in autoactivation, all missense mutants were directly activated by BID BH3 peptide, although they induced lower level of permeabilization compared to WT BAK (Fig. 2b and Supplementary Fig. 3a).
We performed liposome permeabilization assays as previously described[43]–[46]. […] (nickel salt) [DGS NTA(Ni), 2.5 μM final concentration in each assay] (Avanti Polar Lipids). We prepared 12.5 mM fluorophore; 8-aminonaphthalene-1, 3, 6-trisulfonic acid, disodium salt (ANTS) and 45 mM quencher; p-xylene-bis-pyridiniumbromide (DPX) in LUV buffer (10 mM HEPES pH 6.8, 200 mM KCl and 5 mM MgCl2). We mixed the lipid film in ANTS/DPX solution by vortexing and sonication (~15 min) followed by extrusion through polycarbonate membrane of 2 μm pore size (Avanti Polar lipids) to generate homogenous large unilamellar vesicles (LUVs). We separated LUVs from free ANTS/DPX by S500 size exclusion chromatography and stored them at 4 °C in the dark. We prepared peptide and protein dilutions in 96-well black flat bottom plates (Costar) kept on ice. ANTS release from permeabilized liposomes causes an increase in fluorescence, which we monitored at 37 °C for 90 min using a CLARIOSTAR microplate reader (BMG Labtech) set at excitation and emission wavelengths of 360 and 530 nm, respectively. We normalized the data relative to maximum and minimum fluorescence induced by 3% CHAPS and buffer controls, respectively. We quantified liposome permabilization by integrating area under curve (AUC) of normalized traces based on the Simpson’s equation, and analyzed that data in Excel and GraphPad Prism. AUC measurements reflect the kinetic and extent of liposome permeabilization and provide quantitative means for comparison between different experimental conditions (e.g., BAK mutants with gross or partial variation in activity). Variability in permeabilization of different liposomes is common and our analyses compare among conditions investigated with the same liposomes. Although the absolute permeabilization values may differ, the trends for the same conditions are always very similar between different liposomes.

[2] = test system: BCL2allKO HCT116 cells reconstituted with Dox-inducible mC-BAK; assay: Dox-induced cell death by IncuCyte imaging of SYTOX Green uptake (autoactivation); format: cell-based, human; conditions: for AUC (48 hr) of SYTOX Green counts/confluence: mC-BAK BCL2allKO HCT116 + Dox + qVD, average, N = 3; for SYTOX Green +ve counts/confluence AUC of kinetic traces: Fig 3d
Excerpt: For mammalian cell culture experiments, we cloned the full length human BAK cDNA into pCR 2.1 TOPO vector, mutated BAK as needed, and PCR amplified the BAK gene for cloning into the BamHI and NotI sites of pRETROX mCherry vector for retroviral transduction. Amplification and mutagenesis primers are included in Supplementary Table 4. To test direct BAK activation and BAK autoactivation in cells, we produced cells stably expressing mCherry-human BAK (mC-BAK) ± human BID (BID) on a genetic background devoid of the entire BCL-2 family repertoire (all 17 BCL-2 genes), BCL2allKO HCT116, as described by the Xu Luo laboratory. We expressed WT and mutant mC-BAK using the doxycycline (Dox)-based inducible Tet-On 3G retroviral system from the pRetroX-TRE3G-Puro^R in BCL2allKO HCT116 cells expressing the Tet3G from pRetroX-Tet3G-Blast^R. We selected cells with puromycin (2.5 µg/mL) and blasticidin (2 µg/mL) starting at 2 days after retroviral transduction. To enrich for populations of cells that express mC-BAK, we treated cells with low Dox dose (25 ng/mL) and fluorescence-activated cell sorted (FACS) the mCherry positive cells. We performed the enrichment twice before cell death analysis. One caveat of our cellular system is tagging BAK with N-terminal mCherry, which may affect folding efficiency, degradation, and BAK interactome.
(§1) We seeded cells in 24-well (100,000 cells/well), 96-well (15,000 cells/well), or 384-well (10,000 cells/well) plates coated with 10 µg/mL fibronectin. After ≥24 h of attachment and recovery, we induced cell death with Dox (up to 1000 ng/mL) and monitored SYTOX Green (25 nM) uptake by Incucyte imaging. This dye marks cells with compromised plasma membrane integrity. mC-BAK expressed before 24 h, which coincided with detectable cell death. We monitored Incucyte imaging for up to 48 h, followed by endpoint FACS analysis to measure the extent of cell death based on SYTOX Green positive cells on FACSCalibur systems (BD Biosciences). As expected, cells with low mCherry fluorescence were refractory to cell death.

[3] = test system: BCL2allKO HCT116 cells reconstituted with mC-BAK; assay: Endpoint FACS analysis of SYTOX Green positive cells; format: cell-based, human; conditions: average, N = 3
Experimental: as §1

[4] = test system: BCL2allKO HCT116 cells expressing mC-BAK and BID; assay: Dox + TRAIL + CHX induced cell death by IncuCyte imaging of SYTOX Green uptake (direct activation); format: cell-based, human; conditions: TRAIL 200 ng/mL + CHX 0.5 µg/mL added at 6 h
Experimental: We achieved stable, constitutive expression of human BID in mC-BAK expressing BCL2allKO HCT116 by retroviral transduction based on pMX-human-BID-IRES-GFP. Amplification primers are included in Supplementary Table 4. We performed two rounds of FACS sorting gating on GFP-positive cells to enrich for populations of cells that express BID.
For coexpression of mC-BAK + BID, we treated cells with different doses of Dox for 24 h to induce expression of mC-BAK. At 6 h, we treated cells with TRAIL (200 ng/mL) + cycloheximide (CHX, 0.5 µg/mL) to promote BID activation under conditions of protein synthesis inhibition by CHX, and continued to record Incucyte imaging of SYTOX Green uptake up to 48 h. We blocked caspase activity with qVD (40 µM).

B1: M71A (0): BAK missense mutant (protein, UniProt Q16611 2-211, looked up, variant M71A)
Bcl-2 homologous …: ASGQGPGPPRQECGEPALPSASEEQVAQDTEEVFRSYVFYRHQQEQEAEGVAAPADPEMVTLPLQPSSTAGQVGRQLAIIGDDINRRYDSEFQTMLQHLQPTAENAYEYFTKIATSLFESGINWGRVVALLGFGYRLALHVYQHGLTGFLGQVTRFVVDFMLHHCIARWIAQRGGWVAALNLGNGPILNVLVVLGVVLLGQFVVRRFFKS
autoactivation in liposome permeabilization assays [1]: behave similar to WT BAK

B2: R137A: BAK mutant in helix α1 electrostatic network (protein, UniProt Q16611 2-211, looked up, variant R137A)
Bcl-2 homologous …: B1 Bcl-2 homologous … with A70M, R136A
autoactivation in liposome permeabilization assays [1]: hyperactive compared to WT

B3: I85A (4): BAK missense mutant (protein, UniProt Q16611 2-211, looked up, variant I85A)
Bcl-2 homologous …: B1 Bcl-2 homologous … with A70M, I84A
autoactivation in liposome permeabilization assays [1]: activity comparable to WT

B4: R42A: BAK mutant in helix α1 electrostatic network (protein, UniProt Q16611 2-211, looked up, variant R42A)
Bcl-2 homologous …: B1 Bcl-2 homologous … with R41A, A70M
autoactivation in liposome permeabilization assays [1]: hyperactive compared to WT

B5: E46A: BAK mutant in helix α1 electrostatic network (protein, UniProt Q16611 2-211, looked up, variant E46A)
Bcl-2 homologous …: B1 Bcl-2 homologous … with E45A, A70M
autoactivation in liposome permeabilization assays [1]: hyperactive compared to WT

B6: I81A (3): BAK missense mutant (protein, UniProt Q16611 2-211, looked up, variant I81A)
Bcl-2 homologous …: B1 Bcl-2 homologous … with A70M, I80A
AUC (48 hr) of SYTOX Green counts/confluence ([2]; Dox 100 ng/mL): 55640.5
AUC (48 hr) of SYTOX Green counts/confluence ([2]; Dox 1000 ng/mL): 85389.8
flow cytometry SYTOX Green counts/confluence (48 hr) ([3]; Dox 100 ng/mL): 37.7333
flow cytometry SYTOX Green counts/confluence (48 hr) ([3]; Dox 1000 ng/mL): 54.2

B7: D83A (s): BAK missense mutant, autoactivation-impaired; in cells as mCherry fusion (protein)
chain: MASGQGPGPPRQECGEPALPSASEEQVAQDTEEVFRSYVFYRHQQEQEAEGVAAPADPEMVTLPLQPSSTMGQVGRQLAIIGADINRRYDSEFQTMLQHLQPTAENAYEYFTKIATSLFESGINWGRVVALLGFGYRLALHVYQHGLTGFLGQVTRFVVDFMLHHCIARWIAQRGGWVAALNLGNG
modifications: left off: His6, C-terminal, kept
notes: in cells as mCherry fusion
SYTOX Green +ve counts/confluence AUC of kinetic traces ([2]; Dox 6.25 ng/mL): 251.48
SYTOX Green +ve counts/confluence AUC of kinetic traces ([2]; Dox 6.25 ng/mL + qVD): 178.809
SYTOX Green +ve counts/confluence AUC of kinetic traces ([2]; Dox 12.5 ng/mL): 298.87
SYTOX Green +ve counts/confluence AUC of kinetic traces ([2]; Dox 12.5 ng/mL + qVD): 216.467
SYTOX Green +ve counts/confluence AUC of kinetic traces ([2]; Dox 25 ng/mL): 546.446
SYTOX Green +ve counts/confluence AUC of kinetic traces ([2]; Dox 25 ng/mL + qVD): 167.305
SYTOX Green +ve counts/confluence AUC of kinetic traces ([2]; Dox 50 ng/mL): 973.937
SYTOX Green +ve counts/confluence AUC of kinetic traces ([2]; Dox 50 ng/mL + qVD): 180.875
SYTOX Green +ve counts/confluence AUC of kinetic traces ([2]; Dox 100 ng/mL): 1429.67
SYTOX Green +ve counts/confluence AUC of kinetic traces ([2]; Dox 100 ng/mL + qVD): 197.929
SYTOX Green +ve counts/confluence AUC of kinetic traces ([2]; Dox 500 ng/mL): 1807.16
SYTOX Green +ve counts/confluence AUC of kinetic traces ([2]; Dox 500 ng/mL + qVD): 226.028
SYTOX Green +ve counts/confluence AUC of kinetic traces ([2]; Dox 1000 ng/mL): 2018.82
SYTOX Green +ve counts/confluence AUC of kinetic traces ([2]; Dox 1000 ng/mL + qVD): 223.673
Dox-induced cell death ([2]; IncuCyte SYTOX Green up to 48 h): consistently less potent at inducing apoptosis than V74A(1)
AUC (48 hr) of SYTOX Green counts/confluence ([2]; Dox 100 ng/mL): 54126.6
AUC (48 hr) of SYTOX Green counts/confluence ([2]; Dox 1000 ng/mL): 77700.1
fold higher expression level for similar cell death compared to V74A ([2]; mC-BAK/actin immunoblot, Fig. 3d): ~ 10 fold
cell death with Dox + TRAIL + CHX compared to Dox alone [4]: boosted the levels of cell death
flow cytometry SYTOX Green counts/confluence (48 hr) ([3]; Dox 100 ng/mL): 35.2333
flow cytometry SYTOX Green counts/confluence (48 hr) ([3]; Dox 1000 ng/mL): 43.7667

Reference: article PMC8752837, “Structural basis of BAK activation in mitochondrial apoptosis initiation” (Nature Communications, 2022)
